Test: yeast display, Sf9 membrane polyspecificity reagent, FACS + sequencing; frameworks hold sequencing errors
Procedure, shortened: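 Nanobodies came from a synthetic yeast display library in Saccharomyces cerevisiae BJ5465, induced with galactose for 36–48 hours and stained for 1 hour at 4 °C with 10% biotinylated, detergent-solubilized Sf9 membrane reagent. Cells were enriched on streptavidin microbeads and then FACS-sorted, with low and high (top ~1%) gates set on anti-HA fluorescence for expression and streptavidin fluorescence for reagent binding. Each polyreactivity label reflects the gate a clone came from. Genes were amplified by colony PCR, sequenced by MiSeq 2 × 250 and filtered by CDR length.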

| Sequence | polyreactivity (PSR sort gate) |
| --- | --- |
| QVQLEDSGGCLVQAGGRLRLSCAASGITYGRNTMGRYRQAPGKERELVAAIDSGGNTYADSVKGRFTISRDNAKITVYLQMNSLKPEDTAVYYCAVYGGEFSSYGYWGQGTQVTVSS | low polyreactivity |
| QVQLEDSGGGLVQAGGSLGLSCAASGITFSVYDMGWYRQAPGKERQLVAAISWSGGSTYYADSVKGRFTISRDNAKNTVFLQMNSLKPDDTAVYYCAAEVDYWYELYDYWGLGTQVTVSS | high polyreactivity |
| QVQLEDSGGGLVQAGGSLRLSCAASGGTFRYNSMGWYRPAPGKERELVAGITWGGGSTYYADSVKGRFTISRDYAKNSVYLQMNSLKPEDTAVYYCNAVRPRQWWTHYGYWGQGTQVTVSS | high polyreactivity |
| QVQLEDSGGGLVQAGGSLRLSCAASGRIFGYNAMGWYRQAPGKERELVAAITTSGGSTYYADSVKGRFTISRDNAKNTVYLQMNSLKPEDTAVYYCARDSLQVFYPYASDDYWGQGTQVTVSS | low polyreactivity |
| QVQLEDSGGGLVQAGGSLRLSCAASGRIFYAYAMGWYRPAPGKEREFVASISGSGGSTYYADSVKGRFTISRDNAKNTVYLQMNSLKPEDTAVYYCAKRYPFFSSGLSPYNYWGQGTQVTVSS | high polyreactivity |
| QVQLEDSGGGLVQAGGSLRLSCAASGSIFYSNSMGWYRQAPGKERELVAAISSSGSRTYYADSVKGRFTISRDNAKNTVYLQMNSLKPEYTAVYYCSAVIRYTRSYDYWGQGTQLTVSS | high polyreactivity |
| QVQLEDSGGGLVQAGGSLRLSSAASGSTFAVYAMGWYRQAPGKERELVAAISFSGSTYADSVKGRFTISRDNAKNTVYLQMNSLKPEDTAVYYCAKEYRVFGWWYTKGDYWGQGTQVTVSS | low polyreactivity |
| QVQLEDSGGGLVQAGRSLLLSFAASGNTFWLNAKGRYRQAPGKERELVAAITYTDGSTYADSVKGRFTISRDNAKITVYLQMNSLKPEDSAVYYCAARYQWDWRDYYYWGQGTQVTVSS | low polyreactivity |
| QVQLEEAGGGLVQAGGSLRLSCAASARIIARYAMGWYRQAPGKERELVAAITGSGGSTYYADSVKGLFTISRDHANNTVYLQMNCLKPEDTAVYYCAARSVYTYYRLDYWGQGTQVTVSS | high polyreactivity |
| QVQLEESGAGLVQAGGRLRLSCAASGITFILYAMGWYRHAPGKERELVAAISSGGRTKYADSEKGRFTISRDNAKNTVYLQMTSLKPEDTAVYYCNVSYLVYRWNFGWSMDYWGQGTQVTVSS | low polyreactivity |
| QVQLEESGAGLVQAGGSLRLSCAASGRTFYRYAMGWYIQAPGKERELVAAITSGDRTYYADSVKGRFTISRDNALNTVYLQMNSLKPEYTAVYYCAARRDYWARYYYWGQGTQVTVSS | high polyreactivity |
| QVQLEESGAGLVQAGGSLRLSCAASGYIFDKYTLGWYRQAPGKERELVAVISSRGGSTYYADSVKGRFTISRDNAKNTVYVQMNSRKPEDTAVYYCAARFYRPSVPYRYDYWGQGTQVTVSS | high polyreactivity |
| QVQLEESGGAFVQAGGSLRLSCAASGFIFVPYSMGWYREAPGKEREFVAAITASGGNTYYADSVKGRFSISRDNAKNTVYLQMNSVKPEDTAVYYCAADISGSLESLDYWGQGTQVTGSS | low polyreactivity |
| QVQLEESGGAIVQAAGSLRLSCAASGLIFAWYALGWYRPAPGKERELVATISWNGDRTYYADSVKGRFTISRDNAKNTVYLQMNSLKPEDTAVYYCAARFGSGFNYWGKGTQVTVSS | high polyreactivity |
| QVQLEESGGALVQAGGSLRLSGAASVSTFAYYAMGWYRQAPGKERELVAAISWSGGSTYYADSVKGRFTISRDNAKNTVYLLMNSLKPEDTAVYYCNKRNVLDYDYWGQGTQVTVSS | low polyreactivity |
| QVQLEESGGCLVQAGGSLRLSCAASGFTFYQNAMGWYRQAPGKERELVAAISSGASTYYADSVKGRFTISRDNAKNTVYLQMNSLKPEDTAVYYCAADRYKPSLRWRRPKMNYWGQGTQVTVSS | high polyreactivity |
| QVQLEESGGCLVQAGGSLRLSCAASGRIFGSYTMGWYRQAPGKERELVAAISDSGGSTYYADSVKGRFSISRDNAKNTVYLQMNSLKPEDTAVYYCNADWSWYNYYDFDYWGQGTQVTVSS | low polyreactivity |
| QVQLEESGGGFVQAGGSLRLSCAASGFIFSSNAMGWYRQAPGKERELVASISSGGSTNYADSVKGRFTISRDNAKNTVYLQMNSLKPEDTAVYYCAADGISLYATAYDYWGQGTQVTVSS | low polyreactivity |
| QVQLEESGGGIVQAGGSLRLSCAASGRIFYHYAMGGYRKAPGKEREWVAAISGSGGSTYYADSVKGGFTISRYNAKNTVYLQMNSLNPEDTAVFYCSTSGPQYYARNFDYCGQGTQVTVSS | low polyreactivity |
| QVQLEESGGGIVQAGGSLRLSCAASGSTFVLYAMGWYRPAPGKERELVAAITSGGSTYYADSVKGRFTISRDNAKNTVYLQMNSLKPEDTAVYYCAASYWDTEPGYREYDYWGQGTQVTVSS | low polyreactivity |
| QVQLEESGGGLDQAGGSLRLSCAASGRIFFYNAMGWYRQAPGKERELVAGISRSGTSTYYADSVKGRFTNSRDNAKNTVFLQMNSLKPEDTAVYYCAAAAWSVILWREMDYWGQGTQVTVSS | low polyreactivity |
| QVQLEESGGGLDQAGGSLRLSCAASGSTFYKNAMGWYRQAPGKERELVARISGRGGSTDYADSVKGRFTISRDNAKNTVYLQMNSLKPDDTAVYYCNAGKYSSSDALYDYWGQGTQVTVSS | high polyreactivity |

| Sequence | polyreactivity (PSR sort gate) |
| --- | --- |
| QVQLEESGGGLFQAGGSLRLSCAASGRTFPGNAMGWYRQAPGKERELVAAISYSGGRTYYADSVKGRFTISRDNAKNTVYLQMNSLKPEDTAVYYCNAWARLGRYEYWGQGTQVTVSS | high polyreactivity |
| QVQLEESGGGLGQAGGSLRLSCAASGSIFAYYAMGWYRQAPGKERELVAAISWGGGNTYYADSVKGRFTISRDNAKNNVYLQMNSLKPEDTAVYYCAAEDYYYYGVAYGYWGQGSQVTVSS | high polyreactivity |
| QVQLEESGGGLVHAGGSLRLSCAASGFTFKYNAMGWYRQAPGKEREFVASISSGSTNYADSVKGRFTISRDNAKNTVYLQMNSLKPEDTAVYYCAASVSRGKRFRYGYVFKMDYWGQGTQVTVSS | low polyreactivity |
| QVQLEESGGGLVQAGCSLRLSCADSGITFGGNAMGWYRQAPGKERDLVAAIDEGGGSTYYADTVKGRFTLSRDNAKNTVYLQMHSLKPEPTAVDYCAADFGYYGYYYWGQGTQVTVST | low polyreactivity |
| QVQLEESGGGLVQAGGILRLSCAASGSMFVAYTMGWYRQEPGKERELVAAISRGGSTNYADSVKGRFTISRDNAKTTVYLQMNSLKPEDTAVYYCAAKVWDGQLLYYWGQGTQVTVSS | low polyreactivity |
| QVQLEESGGGLVQAGGILRLSCAFYYGIGWYRQATGKERELVAAINLGGGSTYYADSVKGLFTISRDNAKNTVYLQMNSLKPEDTAVYYGAADVGSRTYYVKYDYWGQGTEVTVSS | low polyreactivity |
| QVQLEESGGGLVQAGGRLRLSCAASGRIFSRNAMGGSRTATGKERELVAAISSSTGSTYYADSVKGRFTISRDNAKKTVYLQMNSLKPEDTAVYYCAARYWGDYFTEMNYWGQGTQVTVSS | high polyreactivity |
| QVQLEESGGGLVQAGGSIRLSCAASGSTFYTNAMGWYRQAPGKERELVAAISSSGDSTYYADSVKGRFTISRDTAKNTVYLQMNSLKPEDTAVYYCNADRRSYNGFRYYYWGQGTQVTVSS | low polyreactivity |
| QVQLEESGGGLVQAGGSIRLSCAASVSTFVGNAMGWYRKAPGKETEFVATISNSGGRTYYADSVKGRFTISRDNSKNTVYLQMNSLKPEDTAVYFCAADHPAFCPGYSFDYWGQGTQVTVTS | low polyreactivity |
| QVQLEESGGGLVQAGGSLRFSCAASGRIYRYAMGWYRQAPGKERELVASITYSGGSTYYADSVKGRFTISRDNAKNTVYLQMNSLKPEDTAVYYCAASTRHVHYGYWGQGTQVTVSS | high polyreactivity |
| QVQLEESGGGLVQAGGSLRISCAASGRTFNYNAIGWYRQAPGKERELVAAITSGGRTNYADSVKGRFTISRDNAKNTVYLQMNSLKPEDTAVYYCATEYYRYRWVGAFRYPVYYWGQGTQVTVSS | low polyreactivity |
| QVQLEESGGGLVQAGGSLRLICAASGCIFEYNAMGWSRQAPRKEREFVAAINNSGGRTYYADSVKGRFTISRDNANNTVYLQMNSLKPEDTAVYYCAVYSYYRRTYRREMDYWGQGTQVTVSS | high polyreactivity |
| QVQLEESGGGLVQAGGSLRLRCAASGRTFGYYAMGWYRQAPGKERQLVASITSGGRTYYADSVKGRFTISRDNSKNTVYLQMNSLKPEDTAVFYCAADRFGIGGKSGNDYWGQGTQVTVSS | high polyreactivity |
| QVQLEESGGGLVQAGGSLRLSCAASGCTLTDYAMGWYIQAPGKERELVAAISSVGSTNYADSVKGRFTISRDNAKNTVYLQMNSLKPEDTAVYYCAVDYGRAVQGDSITYDFNYWGQGTQVNVSS | low polyreactivity |
| QVQLEESGGGLVQAGGSLRLSCAASGFIFPHYTMGWYRQAPGKERELVAAISSSGGSTYYADSVKGRFTISRDNAKKTVYLQMNSLKPEDTAVYYCPGPLPYYGQYDYWGQGTQVTVSS | low polyreactivity |
| QVQLEESGGGLVQAGGSLRLSCAASGFIFQYNAMGWYRQAPGKEREFVDAINYSGGNTYYADSVKGRFTISRDTAKNTVYLQMNSLKPEDTAVYYCNVRLWYGRWWYNRYNYWGQGTQVTVSS | high polyreactivity |
| QVQLEESGGGLVQAGGSLRLSCAASGFIFYQYAMGSYRQAPGKVRELVAAISWNGGRTYYADSVKGRFTISRDNAKNTVYLQMNSLKPEDTAVYYCAAPVLTSDYTLDSYYWGQGTQVTVSS | high polyreactivity |
| QVQLEESGGGLVQAGGSLRLSCAASGFILEYYAMGWSRQATGKETELVSTISSGGSTNYADSVKGRFTISSDNAKNTVYFQMNRLKPEDTAVFYCAAARYTLSRYYYWGQGTQLTVSS | high polyreactivity |
| QVQLEESGGGLVQAGGSLRLSCAASGFILTGNVMGWYRQAPGKEREFVAGISRSGGTYYADSVKGRFTISRDNAKNTVYLQMNSLKPEDTAVYYCAAKPIYYSRGYYWGQGTQVTVSS | high polyreactivity |
| QVQLEESGGGLVQAGGSLRLSCAASGFTFALYAMGWYRPAPRNEMEFVAAISRRGGSTYYADSVKGRFTISRDNAKNTVYLQMNSLKPEDTAVYYCAANYPFGVYHGAPYGYWGQGTQVTVSS | high polyreactivity |
| QVQLEESGGGLVQAGGSLRLSCAASGFTFAYYAMGWYRQAPGKERELVAGISWRGGRTYYADSVKGRFTISRDNAKNTVYLQMNSLKPEDTAVYYCNARNSYRPGRGYDYGGQGTQVTVSS | high polyreactivity |

From the nanobody polyreactivity screen of Harvey et al. (2022)
